In general, stoichiometry N refers to a count of units in the complex or per binding partner.

This series deals with the molecule itself. Nature of the series: crystal structure; seleno-methionine-labeled BACINT_01033-CE1, 20 mg/ml in 50 mM Tris pH 7.5, 150 mM NaCl; sitting drop, room temperature; P3_(1)21 form from 0.1 M BIS-Tris pH 6.5, 20% PEG 1,500; dimer in the asymmetric unit.

B1: BACINT_01033-CE1 (carbohydrate esterase family 1, ferulic acid esterase) (enzyme, Bacteroides intestinalis DSM 17393)
chain: QQQDFPAGTTPNEHNINGADYPRIGEDRRVHFRIHAPNAQKVEISFRGEMTKEADGYWSLVSKEPEVIGFHYYQVIIDGVSAADPNGKPFFGMGKWVSGIEIPEKGVDYYSIKNVPHGLISQSWYYSDIRKEWRRCIVYTPAEYDKNPTKKYPVLYLQHGMGENETSWANQGKMNFIMDNLIAEGKAKPMIVVMDNGNIEVFKTNSGETPEDARKRFGAEFPAILVNEIIPHIESNFRTLTDRDNRAMAGLSWGGLLTFNTTLNNLDKFAYIGGFSGAGSIDLKQLDTVYGGVFKNRKAFNDKVHVFFLGIGSEEHPERTKNLSDGLQAAGINTIYYESPGTAHEFLTWRRCLKEFAPLLFKTK
modifications: seleno-methionine-labeled
notes: BACINT_01033-CE1 of Bacteroides intestinalis DSM 17393; N-terminal Ig-like fold of ~100 residues followed by the esterase domain (residues 126-383); predicted signal peptide; Cloned NdeI/XhoI into pET-28a; also called Bi1033-CE1; Bi1033; source: E. coli BL21 (DE3), seleno-methionine-labeled, purified (HisTrap, Superdex 200)
As for B1, the “stoichiometry N” value turned out to be 2.
